Assay results: patent US20240002497A1 (Merck Sharp & Dohme, published 2024)
Read-outs that look alike come from different tables or passages of the source.

Assays:
muNav1.7α [1] = target: T1, muNav1.7α (murine, UniProt Q62205 1-1984); assay: binding FACS, HEK JmpIn
T1 construct: HEK JmpIn cells; also called murine Nav1.7α

rhNav1.7α + β1-β2-β3 [2] = target: T2, rhNav1.7α + β1-β2-β3 (rhesus monkey); assay: binding FACS, CHO FlpIn
T2 construct: also called rhNav1.7-beta1-beta2-beta3; rhNav1.7-β1-β2-β3
Protocol: (§1) Binding of the ISVDs to cell-expressed Nav1.7α was detected via murine anti-Flag (Sigma, catalog #F1804). Briefly, cells were resuspended in FACS buffer (PBS, 10% FBS, NaN₃) and transferred to a 96-well V-bottom plate at 1×10^5 cells/well. Purified FLAG3-tagged ISVD was diluted in FACS buffer and added to the cells for 30 minutes at 4° C. […] Prior to the read-out, the samples were resuspended in 1 μg/mL propidium iodide (Sigma, catalog #P4170) to exclude dead cells. Between each step, the cells were centrifuged for 5 minutes at 200 grams and washed with 100 μL/well FACS buffer.

huNav1.7α + β1-β2-β3 [3] = target: T3, huNav1.7α + β1-β2-β3 (human, UniProt Q15858 1-1988; A5A6L6 19-218; O60939 30-215; Q2KI11 23-215); assay: binding FACS, CHO FlpIn
T3 construct: also called huNav1.7-beta1-beta2-beta3; huNav1.7-β1-β2-β3
Protocol: as §1

rhNav1.7α + β1-β2-β3 [4] = target: T2, rhNav1.7α + β1-β2-β3; assay: binding FACS, CHO FlpIn; remark: listed apart in the source
Method in brief: (§2)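 FLAG3-tagged ISVD, 30 min, 4° C, FACS buffer (PBS/10% FBS/NaN₃); 1×10^5 cells/well; detection murine anti-Flag; PI 1 μg/mL live gate; washes between steps.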

huNav1.7α + β1-β2-β3 [5] = target: T3, huNav1.7α + β1-β2-β3; assay: binding FACS, CHO FlpIn; remark: listed apart in the source
Method in brief: as §2

huNav1.7α + β1 = huNav1.7α + β1 (human); assay: cell-based or functional assay
rhNav1.7α + β1-β2-β3 [6] = target: T2, rhNav1.7α + β1-β2-β3; assay: cell-based or functional assay
muNav1.7α [7] = target: T1, muNav1.7α; assay: binding FACS, HEK JmpIn; remark: listed apart in the source
Method in brief: as §2

[8] = target: T4, huNav1.7α(V331M) + β1-β2-β3 (human); assay: binding FACS, CHO FlpIn cells
T4 construct: polyprotein as encoded; the entry already carries V331M; also called huNav1.7(V331M)-beta1-beta2-beta3
Protocol: as §1
(§3) Based on the huNav1.7α model (as described above) the following huNav1.7α-rhNav1.7α polymorphisms can be allocated to the extracellular part of DI: N146S, F276V, R277Q, E281V and V331M. The first of the residues is in DI S1-S2 whereas the latter four residues belong to DI S5-S6. FACS binding studies (as described above) were performed to stable CHO FlpIn cell lines expressing different variants of huNav1.7+β1−β2−β3 each including one of the four possible extracellular huNav1.7α-rhNav1.7α polymorphisms in the DI S5-S6 region: F276V, R277Q, E281V and V331M (Table 23 and FIGS. 22A-22F). Individual polymorphisms were each sufficient to abolish the binding of F0103265B04, F0103362B08, F010301080, and F0103262B06 to huNav1.7α, recapitulating the absence of binding on rhNav1.7α. F0103262CO2, F0103275B05 and F0103387G05 are more subtly affected in terms of EC50 or Bmax by some of the polymorphisms. None of the individual DI S5-S6 polymorphisms by themselves appear to have an impact on the binding of the two rhNav1.7α cross-reactive ISVDs F0103387G04 and F0103464B09. In addition, no effect on binding of the two ISVDs was observed (data not shown) for the three extracellular DIV VSD huNav1.7α-rhNav1.7α polymorphisms Q1530P, H1531Y and E1534D (FIG. 22G).

[9] = target: T5, huNav1.7α(R277Q) + β1-β2-β3 (human); assay: binding FACS, CHO FlpIn cells
T5 construct: polyprotein as encoded; the entry already carries R277Q; also called huNav1.7(R277Q)-beta1-beta2-beta3
Protocol: as §1, §3

[10] = target: T6, huNav1.7α(F276V) + β1-β2-β3 (human, UniProt Q15858 1-1988; A5A6L6 19-218; O60939 30-215; Q2KI11 23-215); assay: binding FACS, CHO FlpIn cells
T6 construct: polyprotein as encoded, P2A sites liberate the subunits; the entry already carries F276V; also called huNav1.7(F276V)-beta1-beta2-beta3
Protocol: as §1, §3

huNav1.7α + β1-β2-β3 [11] = target: T7, huNav1.7α + β1-β2-β3 (human, UniProt Q15858 1-1988; A5A6L6 19-218; O60939 30-215; Q2KI11 23-215); assay: binding FACS, CHO FlpIn cells
T7 construct: Cell line (CHO FlpIn, HEK FlpIn, transient HEK293T) is named under assay; also called huNav1.7-beta1-beta2-beta3; human Nav1.7α with Navβ1, Navβ2 and Navβ3
Protocol: as §1, §3

[12] = target: T8, huNav1.7α(E281V) + β1-β2-β3 (human); assay: binding FACS, CHO FlpIn cells
T8 construct: polyprotein as encoded; the entry already carries E281V; also called huNav1.7(E281V)-beta1-beta2-beta3
Protocol: as §1, §3

rhNav1.7α + β1-β2-β3 [13] = target: T9, rhNav1.7α + β1-β2-β3 (rhesus monkey); assay: binding FACS, CHO FlpIn cells
T9 construct: also called rhNav1.7-beta1-beta2-beta3; rhesus Nav1.7α
Protocol: as §1, §3

huNav1.7α + β1-β2-β3 [14] = target: T7, huNav1.7α + β1-β2-β3; assay: binding FACS, CHO FlpIn cells; remark: listed apart in the source
Method in brief: as §2

rhNav1.7α + β1-β2-β3 [15] = target: T9, rhNav1.7α + β1-β2-β3; assay: binding FACS, CHO FlpIn cells; remark: listed apart in the source
Method in brief: as §2

rhNav1.7α + β1-β2-β3 [16] = target: T9, rhNav1.7α + β1-β2-β3; assay: competition FACS, CHO FlpIn cells, vs EC40 of F0103275B05(N93R)
huNav1.7α + β1-β2-β3 [17] = target: T7, huNav1.7α + β1-β2-β3; assay: competition FACS, CHO FlpIn cells, vs EC25 of F0103275B05(N93R)
huNav1.7α + β1-β2-β3 [18] = target: T7, huNav1.7α + β1-β2-β3; assay: competition FACS, HEK FlpIn cells, vs EC30 of CMYC3-F0103265B04
Protocol: Competition FACS assays were performed with CMYC3-tagged ISVD F0103265B04 or F0103275B05(N93R) affinity maturation variant on a HEK FlpIn huNav1.7α+β1−β2−β3 transgenic cell line. Briefly, cells were resuspended in FACS buffer (PBS, 2% FBS, 0.05% NaN₃) and 1×10⁵ cells/well were transferred to 96-well V-bottom plates. Cells were subsequently resuspended in a 100 μL mixture of purified ISVD (dilution series) and CMYC3-tagged ISVD F0103265B04 (at a concentration equivalent to EC30) followed by incubation for 1.5 hours at 4° C. […] Between each step, the cells were centrifuged for 5 minutes at 200 g and washed with 100 μL/well FACS buffer. Prior to the read-out, the samples were resuspended in 5 nM TOPRO3 (Molecular probes, catalog #T3605) to exclude dead cells. F0103262CO2, F0103262B06, F0103265A11, F0103265B04, F0103275B05, F0103362B08, and F0103387G04 all compete with F0103265B04 for binding to huNav1.7α, in contrast to an irrelevant control ISVD (IRR) (see Table 21 and FIG. 15A, FIG. 15B, FIG. 15C, and FIG. 15D).

B1: F0103464B09 (parental)-FLAG-HIS6 (VHH)
VHH: EVQLVESGGGLVQPGGSLRLSCATTSRAFIRDVFTGWYRRVPGKERELVARIYNGGNTNYADFAKGRFSISRDNAKKMVTLRMSNLKPEDTGVYYCLFSGTINTGREYRSGDYWGQGTLVTVSS
notes: also called F010346B09
EC50 (muNav1.7α [1]): 6.3 nM
EC50 (rhNav1.7α + β1-β2-β3 [2]): 18 nM
EC50 (huNav1.7α + β1-β2-β3 [3]): 5.2 nM
Bmax (rhNav1.7α + β1-β2-β3 [4]): 33%
EC50 (rhNav1.7α + β1-β2-β3 [4]): 18 nM
Bmax (huNav1.7α + β1-β2-β3 [5]): 99%
EC50 (huNav1.7α + β1-β2-β3 [5]): 5.2 nM
Qpatch IC50 (huNav1.7α + β1): 7 nM
Qpatch IC50 (rhNav1.7α + β1-β2-β3 [6]): 166 nM
Bmax (muNav1.7α [7]): 74%
EC50 (muNav1.7α [7]): 6.3 nM

B2: F0103464B09 (VHH)
VHH: B1 VHH
notes: entry includes the FLAG-HIS6 tag; also called F0103464B09 (parental)-FLAG-HIS6; F103464B09
EC50 [8]: 1.6 nM
EC50 [9]: 2.6 nM
EC50 [10]: 2.7 nM
EC50 (huNav1.7α + β1-β2-β3 [11]): 3.4 nM
EC50 [12]: 2.7 nM
EC50 (rhNav1.7α + β1-β2-β3 [13]): 31 nM
EC50 (huNav1.7α + β1-β2-β3 [14]): 5.4 nM
Bmax (rhNav1.7α + β1-β2-β3 [15]): 54%
EC50 (rhNav1.7α + β1-β2-β3 [15]): 33 nM
IC50 (rhNav1.7α + β1-β2-β3 [16]): 79 nM
IC50 (huNav1.7α + β1-β2-β3 [17]): 12 nM

B3: F0103387G05 (VHH)
VHH: EVQLVESGGGLVQAGGSLRLSCDASGRILRIGYMRWHRQGAGKQREFVARITDDSATDYADSVKGRFTISRDNAKNTVYLQMNNLNPEDTAVYYCEALVTASVRGGSIHSGTYWGRGTLVTVSS
notes: entry includes the FLAG-HIS6 tag; also called F0103387G05 (parental)-FLAG-HIS6
EC50 [8]: 5.9 nM
EC50 [9]: 2.2 nM
EC50 [10]: 2.4 nM
EC50 (huNav1.7α + β1-β2-β3 [11]): 2.6 nM
EC50 [12]: 2.3 nM
binding result (rhNav1.7α + β1-β2-β3 [16]): no binding
IC50 (huNav1.7α + β1-β2-β3 [17]): 10 nM
IC50 (huNav1.7α + β1-β2-β3 [18]): 9.4 nM
